The values that follow come from paper PMC4370742, “Expression, purification, and characterization of galactose oxidase of Fusarium sambucinum in E. coli” (Protein Expression and Purification, 2015).

Substrate in series [1]: CO[C@@H]1O[C@H](CO)[C@H](O)[C@H](O)[C@H]1O
Put plainly: purified protein. The format is biochemical, Fusarium sambucinum. To be noted: O2 at air saturation, 20 mM potassium phosphate pH 7.0, 30 °C, Cu-activated enzyme.

Substrate in series [2]: OC[C@H]1O[C@H](OC[C@H]2O[C@H](O[C@]3(CO)O[C@H](CO)[C@@H](O)[C@@H]3O)[C@H](O)[C@@H](O)[C@@H]2O)[C@H](O)[C@@H](O)[C@H]1O
The series can be described thus: purified protein. The format is biochemical, Fusarium sambucinum. To be noted: O2 at air saturation, 20 mM potassium phosphate pH 7.0, 30 °C, Cu-activated enzyme.

In general, Km refers to the substrate concentration at which the rate is half of its maximum. In general, Vmax refers to the top rate of the reaction or transport when substrate is in excess. For orientation: kcat means the number of substrate molecules converted per active site and unit of time at saturation. What is called kcat/Km is the turnover number divided by the Michaelis constant.

B1: galactose oxidase (GalOx) of Fusarium sambucinum (Fusarium sambucinum) (protein)
chain: ASAPIGSAISRNNWAVTCDSAQPGNECNKAIDGNRDTFWHTFYGANGDPKPPHTYNIDMKTTQNVNGLSMLPRQDGSQNGWIGRHEVYLSSDGKTWGSPVATGSWFADSTTKYSNFETRPARYVRLVALAEANGQPWTSIAEINVYQASSYTAPQPGLGRWGPTIDLPIVPAAAAIEPTSGRVLMWSSYRNDAFGGSPGGVTLTSSWDPSSGIVSDRTVTVTKHDMFCPGISMDGNGQIVVTGGNDAKKTSLYDSPSDSWVPGPDMQVARGYQSSATMSDGRVFTIGGSWSGGIFEKNGEVYSPSSKTWTSLPNAKVNPMLTADKQGLYRSDNHAWLFGWKKGSVFQAGPSTAMNWYYTSGSGDVKSAGKRQSNRGVAPDAMCGNAVMYDAVQGKILTFGGSPDYQDSDATTNAHIITLGEPGSTPKTVFASNGLYFARTFHTSVVLPDGSTFITGGQRRGIPFEDSTPVLTPEIYVPEQDTFYKQNPNSIVRVYHSISLLLPDGRVFNGGGGLCGDCTTNHFDAQIFTPNYLYDSNGNLATRPKITRTSTQSVKVGGRVTISTDYSIRKASLIRYGTATHTVNTDQRRIPLTLMNNGGNSYSFQVPSDTGIALPGYWMLFVINSAGVPSVASTIRVTQ
notes: C-terminal His6 tag kept (pET21a NdeI/NotI); E. coli BL21(DE3); IMAC
B1: in series [1], the Km is reported as 39 ± 1.7 mM, the maximum rate (Vmax) was determined as 67 µmol/min/mg, the kcat turned out to be 77 s⁻¹ and the kcat/Km was 2000 M⁻¹ s⁻¹. Also, in series [2], the Km was found to be 20 ± 2.3 mM, the Vmax was found to be 43 µmol/min/mg, the kcat is 49 s⁻¹ and the kcat/Km was 2500 M⁻¹ s⁻¹.
